In the supplement of paper PMC10126150:
± gives the standard deviation of the averaged measurements.

System: ATP
Assay: switch fluorescence ratio, 500 uM ATP over buffer (Cy3 cluster intensity, sum of 5 cycles each) (fold (ratio)); higher = stronger signal-on switching upon ATP binding; sequences stand for … in TCGTCGGCAGCGTCAGATGTGTATAAGAGACAGTTTTTTTTTTTTTTTTTTTTTTTTT…TC
Settings: aptamer strand: ATP DNA aptamer (quencher-CACCTGGGGGAGTATTGCGGAGGAAGG + anchor), 100 nM annealed; ATP concentration: 500 uM
How it was run: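 Values give the fluorescence ratio for each switch-domain sequence, averaged from per-cluster ratios of summed target-cycle to summed buffer-cycle Cy3 intensity. The Cy3-labelled switching-strand clusters sat on a modified Illumina MiSeq flow-cell, were annealed to 100 nM quencher-labelled ATP aptamer, and were imaged in selection buffer, then after 15 min with 500 uM ATP at 22 °C. Five cycles ran with NaOH stripping and re-annealing between them, and clusters outside 100-1000 RFU were excluded.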
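Note: ATP exposure 15 min at 22 °C before imaging.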

Sequence	switch fluorescence ratio
TTTGCCTGTA	0.992 ± 0.032
TTTGCCTT	1.06 ± 0.051
TTTGCGAACA	1.06 ± 0.079
TTTGCGAGGT	0.972 ± 0.026
TTTGCGCGCG	0.992 ± 0.021
TTTGCGGAAT	1.05 ± 0.027
TTTGCGGGTT	1 ± 0.057
TTTGCTAGTT	0.988 ± 0.009
TTTGCTATAT	1.18 ± 0.33
TTTGCTGGAA	0.995 ± 0.015
TTTGCTTAGG	0.993 ± 0.037
TTTGCTTCGT	1.04 ± 0.048
TTTGCTTTGG	0.997 ± 0.019
TTTGGACGTC	0.992 ± 0.037
TTTGGAGGGA	1.48 ± 0.8
TTTGGAGTGT	1.08 ± 0.12
TTTGGATCAG	1.01 ± 0.02
TTTGGATGAA	1.05 ± 0.013
TTTGGATGCT	1.05 ± 0.14
TTTGGCAAGG	1.01 ± 0.054
TTTGGCATGC	1.11 ± 0.14
TTTGGCATGG	1.024 ± 0.0073
TTTGGCCAAA	1.05 ± 0.046
TTTGGCCAAG	0.996 ± 0.029
TTTGGCCCCT	1 ± 0.03
TTTGGCGAAC	1.02 ± 0.02

Sequence	switch fluorescence ratio
TTTGGCGGCG	0.993 ± 0.067
TTTGGCGGGG	0.999 ± 0.04
TTTGGCGTTG	0.9881 ± 0.0086
TTTGGCTATT	0.976 ± 0.028
TTTGGCTTAT	0.989 ± 0.022
TTTGGGAAGG	0.985 ± 0.034
TTTGGGACTT	1.01 ± 0.035
TTTGGGAGGA	1.02 ± 0.047
TTTGGGATTT	1.04 ± 0.15
TTTGGGGAAT	1.02 ± 0.033
TTTGGGGGCA	0.989 ± 0.041
TTTGGGGGTG	1.02 ± 0.038
TTTGGGGTAC	1.72 ± 1.3
TTTGGGGTAT	0.995 ± 0.028
TTTGGGTAGG	1.03 ± 0.062
TTTGGGTAGT	1.04 ± 0.034
TTTGGGTGCA	0.987 ± 0.038
TTTGGGTGTC	0.979 ± 0.014
TTTGGGTTCT	1.03 ± 0.031
TTTGGGTTTG	1.01 ± 0.029
TTTGGTATAG	0.975 ± 0.01
TTTGGTCAAG	1.01 ± 0.016
TTTGGTGGAT	0.9794 ± 0.0058
TTTGGTTGAG	1 ± 0.047
TTTGGTTGG	1.0076 ± 0.00057
TTTGGTTGTA	0.965 ± 0.014

Sequence	switch fluorescence ratio
TTTGGTTTCA	0.994 ± 0.013
TTTGGTTTGA	1 ± 0.046
TTTGTAACAT	0.966 ± 0.047
TTTGTACGGG	0.999 ± 0.036
TTTGTAGCAG	1.09 ± 0.028
TTTGTAGCCG	1.01 ± 0.061
TTTGTAGCTG	1.4 ± 0.046
TTTGTAGTAT	1.03 ± 0.1
TTTGTATTAC	1.32 ± 0.38
TTTGTATTTT	0.992 ± 0.026
TTTGTCAGTA	0.989 ± 0.018
TTTGTCCCG	1.01 ± 0.044
TTTGTCGACC	0.992 ± 0.0055
TTTGTCGGGT	0.994 ± 0.014
TTTGTCTAG	1.022 ± 0.00058
TTTGTCTGGT	0.992 ± 0.017
TTTGTCTTTT	1.02 ± 0.045
TTTGTGAGT	0.979 ± 0.017
TTTGTGAGTA	1 ± 0.023
TTTGTGGAGT	1 ± 0.021
TTTGTGGGA	0.997 ± 0.021
TTTGTGGGCC	1.03 ± 0.093
TTTGTGGGCG	0.932 ± 0.021
TTTGTGGGG	0.978 ± 0.023
TTTGTGGGGT	1.01 ± 0.047
TTTGTGGGTC	0.995 ± 0.043

Sequence	switch fluorescence ratio
TTTGTGGTTG	0.992 ± 0.032
TTTGTGTCCG	0.946 ± 0.088
TTTGTGTGGT	0.978 ± 0.017
TTTGTGTGTA	0.9846 ± 0.0097
TTTGTGTTCT	0.9786 ± 0.0048
TTTGTGTTTA	0.9791 ± 0.0042
TTTGTGTTTT	1.03 ± 0.044
TTTGTTAAAA	1.04 ± 0.061
TTTGTTACCG	0.995 ± 0.012
TTTGTTAGAA	1.02 ± 0.012
TTTGTTCCTT	1.01 ± 0.04
TTTGTTCTGG	1.49 ± 0.73
TTTGTTGCAG	0.994 ± 0.036
TTTGTTGCCT	1.014 ± 0.0088
TTTGTTGTGC	1.01 ± 0.016
TTTGTTTATA	0.9992 ± 0.0034
TTTGTTTGAT	0.999 ± 0.034
TTTGTTTTGT	1.01 ± 0.051
TTTGTTTTTC	1.02 ± 0.013
TTTTAAAAAG	1 ± 0.012
TTTTAAAACG	1.04 ± 0.084
TTTTAAACAC	1.07 ± 0.11
TTTTAAAGCT	1.09 ± 0.039
TTTTAACCCC	1.26 ± 0.19
TTTTAACGTG	0.979 ± 0.021
TTTTAACTTT	1.03 ± 0.052

Sequence	switch fluorescence ratio
TTTTAAGGAG	1 ± 0.047
TTTTAAGTTT	0.978 ± 0.027
TTTTAATCTC	0.979 ± 0.024
TTTTAATGTG	1 ± 0.016
TTTTACAAAA	0.981 ± 0.02
TTTTACCACC	1.22 ± 0.049
TTTTACGCAC	1.81 ± 0.024
TTTTACGGAT	1.01 ± 0.012
TTTTACGGGA	1.26 ± 0.41
TTTTACGGGC	1.018 ± 0.0039
TTTTACGGTG	0.978 ± 0.03
TTTTACTCCG	3.1 ± 1.9
TTTTACTGTT	1.12 ± 0.096
TTTTACTT	0.998 ± 0.042
TTTTAGAGT	0.988 ± 0.024
TTTTAGATGA	0.966 ± 0.027
TTTTAGCAAC	1.2325 ± 0.0007
TTTTAGCATT	0.992 ± 0.062
TTTTAGCGGT	0.974 ± 0.02
TTTTAGCTCT	0.963 ± 0.015
TTTTAGGCAC	1.03 ± 0.018
TTTTAGGCCC	1.09 ± 0.073
TTTTAGGCTG	0.961 ± 0.027
TTTTAGGCTT	1.01 ± 0.026
TTTTAGGGAA	1.03 ± 0.035
TTTTAGGTCC	0.977 ± 0.023

Sequence	switch fluorescence ratio
TTTTAGTACC	1.018 ± 0.0081
TTTTAGTTTG	1.01 ± 0.035
TTTTATAAAT	1.02 ± 0.0071
TTTTATAATA	1.05 ± 0.034
TTTTATACGT	1.01 ± 0.016
TTTTATAGAA	1.0092 ± 0.00051
TTTTATAGAT	0.977 ± 0.015
TTTTATAGCA	1.02 ± 0.059
TTTTATAGGG	0.948 ± 0.027
TTTTATCAA	1.07 ± 0.12
TTTTATCACT	1.03 ± 0.034
TTTTATCCGT	1.06 ± 0.066
TTTTATCGGG	0.971 ± 0.016
TTTTATCTTG	1.03 ± 0.017
TTTTATGACA	1.02 ± 0.033
TTTTATGACC	1.008 ± 0.0066
TTTTATGCAA	1.28 ± 0.3
TTTTATGCCC	0.9772 ± 0.0032
TTTTATGCTT	0.97025 ± 0.00037
TTTTATGGAC	1.03 ± 0.03
TTTTATGGAT	1.01 ± 0.013
TTTTATGGCG	1.04 ± 0.0024
TTTTATGGGT	0.992 ± 0.018
